By Kd is commonly meant a measure of binding affinity in units of concentration. A lower Kd goes with tighter binding.

The source of these data is PMC6477179 (2019).

This test addresses GST-p62 FIR (aa 326-380) (human, UniProt Q13501 326-380). In words: SPR. Background: Surface plasmon resonance follows binding to a sensor surface in real time, without labels.

B1: FIP200 CTR (aa 1458-1594) (domain or fragment)
chain: RIMLLERTLQLKEEENKRLNQRLMSQSMSSVSSRHSEKIAIRDFQVGDLVLIILDERHDNYVLFTVSPTLYFLHSESLPALDLKPGEGASGASRRPWVLGKVMEKEYCQAKKAQNRFKVPLGTKFYRVKAVSWNKKV
Take B1: the Kd was 5.1 µM.
